Test [1] has as its target T1, human amylin receptor (amylin 3(a) receptor: human calcitonin receptor with RAMP-3) (human, UniProt P30988 25-474; O60896 24-148).
T1 construct: whole, on cells; Assay used cell membranes of the Amylin 3(a)/CRE-luc BHK cells, not intact cells; also called hAmylin-R; hAmylinR
T1 sequence (looked up) 1: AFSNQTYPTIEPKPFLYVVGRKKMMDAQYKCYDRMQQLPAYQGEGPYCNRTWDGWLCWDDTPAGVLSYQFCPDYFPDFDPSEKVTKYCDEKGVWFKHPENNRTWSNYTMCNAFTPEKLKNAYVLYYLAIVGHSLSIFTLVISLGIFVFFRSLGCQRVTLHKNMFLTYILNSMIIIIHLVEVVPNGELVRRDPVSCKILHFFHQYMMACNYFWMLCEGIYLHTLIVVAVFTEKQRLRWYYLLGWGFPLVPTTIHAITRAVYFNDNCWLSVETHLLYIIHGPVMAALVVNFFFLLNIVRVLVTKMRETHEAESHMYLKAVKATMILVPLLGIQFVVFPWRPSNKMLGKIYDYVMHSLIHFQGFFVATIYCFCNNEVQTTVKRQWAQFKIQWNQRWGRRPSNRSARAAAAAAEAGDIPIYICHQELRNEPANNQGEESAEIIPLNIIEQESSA
T1 sequence (looked up) 2: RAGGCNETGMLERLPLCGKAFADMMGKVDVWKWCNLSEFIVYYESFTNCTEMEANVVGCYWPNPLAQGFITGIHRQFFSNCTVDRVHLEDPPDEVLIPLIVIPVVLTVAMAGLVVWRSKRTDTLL
The test can be described thus: SPA competition with 125I-rat amylin on membranes of BHK cells with human calcitonin receptor and RAMP-3 (Assay V). Put shortly: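 SPA beads with BHK Amylin 3(a)/CRE-luc cell membranes (35 ng/μL final) in 50 mM Hepes pH 7.4, 1 mM CaCl2, 5 mM MgCl₂, 0.1% OA, 0.02% Tween20.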

Test [2] has as its target T2, human calcitonin receptor (human, UniProt P30988 25-474).
T2 construct: whole, on cells; Assay used cell membranes, not intact cells; also called hCTR; hCT
T2 sequence (looked up): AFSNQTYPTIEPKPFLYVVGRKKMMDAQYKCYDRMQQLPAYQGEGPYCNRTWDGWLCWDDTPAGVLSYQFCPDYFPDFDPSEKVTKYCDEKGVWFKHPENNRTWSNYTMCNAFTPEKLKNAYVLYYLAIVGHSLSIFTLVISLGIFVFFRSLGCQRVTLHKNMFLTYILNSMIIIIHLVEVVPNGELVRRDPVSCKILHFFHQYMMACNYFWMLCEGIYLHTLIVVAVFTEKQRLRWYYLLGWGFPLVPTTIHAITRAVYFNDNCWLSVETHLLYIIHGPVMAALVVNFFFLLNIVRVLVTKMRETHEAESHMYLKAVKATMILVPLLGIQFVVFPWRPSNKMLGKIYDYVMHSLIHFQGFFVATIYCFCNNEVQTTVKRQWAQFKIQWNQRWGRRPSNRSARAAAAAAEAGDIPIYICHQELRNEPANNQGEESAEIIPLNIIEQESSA
In words: SPA competition with 125I-calcitonin on membranes of BHK cells with human calcitonin receptor (Assay VII). Put shortly:
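BHK hCTR membranes 35 ng/μL + SPA beads 0.05 mg/well; buffer 50 mM Hepes pH 7.4, 1 mM CaCl2, 5 mM MgCl₂, 0.1% OA, 0.02% Tween20. 120 min, 25° C., shaking. Scintillation count; IC50 by one-site binding competition.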

In test [3] the target is T2, human calcitonin receptor. In words: ratio IC50 hCTR / IC50 hAmylin-R (reference: human amylin receptor), SPA competition assays. In outline: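 Competition binding by SPA with cell membranes (35 ng/μL) and SPA beads in 50 mM Hepes pH 7.4 with 1 mM CaCl2, 5 mM MgCl2, 0.1% OA and 0.02% Tween20. Incubated 120 min at 25 °C with shaking, then counted.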

Numbered stars: 1 amine (or outer) side, 2 acyl side, 3 side chain; on linkers, the order of the positions; unused ones are H or OH. Bridge positions count the residues as written; N and C are the ends. Side chains are listed from the residue outwards. Ends that are not written are not given here. * marks the point of attachment. C20 diacid = O=C(O)CCCCCCCCCCCCCCCCCCC(=O)*; γGlu = O=C(O)[C@H](CCC(=O)[*:2])N[*:1]; C14 diacid = O=C(O)CCCCCCCCCCCCC(=O)*; AEEA = NCCOCCOCC(=O)O

B1: N^ε1-[2-[2-[2-[[(4S)-4-carboxy-4-(19-carboxynonadecanoylamino)butanoyl]amino]ethoxy]ethoxy]acetyl]-[Arg17,Pro21,Pro27,His34]-h-amylin (peptide)
peptide: K([AEEA-γGlu-C20 diacid])CNTATCATQRLANFLRHSSPNFGAIPSSTNVGHNTY-NH2
modifications: disulfide 2-7; N-terminus assumed
SMILES: CC[C@H](C)[C@H](NC(=O)[C@H](C)NC(=O)CNC(=O)[C@H](Cc1ccccc1)NC(=O)[C@H](CC(N)=O)NC(=O)[C@@H]1CCCN1C(=O)[C@H](CO)NC(=O)[C@H](CO)NC(=O)[C@H](Cc1c[nH]cn1)NC(=O)[C@H](CCCNC(=N)N)NC(=O)[C@H](CC(C)C)NC(=O)[C@H](Cc1ccccc1)NC(=O)[C@H](CC(N)=O)NC(=O)[C@H](C)NC(=O)[C@H](CC(C)C)NC(=O)[C@H](CCCNC(=N)N)NC(=O)[C@H](CCC(N)=O)NC(=O)[C@@H](NC(=O)[C@H](C)NC(=O)[C@@H]1CSSC[C@H](NC(=O)[C@@H](N)CCCCNC(=O)COCCOCCNC(=O)CC[C@H](NC(=O)CCCCCCCCCCCCCCCCCCC(=O)O)C(=O)O)C(=O)N[C@@H](CC(N)=O)C(=O)N[C@@H]([C@@H](C)O)C(=O)N[C@@H](C)C(=O)N[C@@H]([C@@H](C)O)C(=O)N1)[C@@H](C)O)C(=O)N1CCC[C@H]1C(=O)N[C@@H](CO)C(=O)N[C@@H](CO)C(=O)N[C@H](C(=O)N[C@@H](CC(N)=O)C(=O)N[C@H](C(=O)NCC(=O)N[C@@H](Cc1c[nH]cn1)C(=O)N[C@@H](CC(N)=O)C(=O)N[C@H](C(=O)N[C@@H](Cc1ccc(O)cc1)C(N)=O)[C@@H](C)O)C(C)C)[C@@H](C)O
notes: also called compound 76
For the molecule B1, the figures for the IC50 in test [1] and in test [2] were 0.215 nM and 17.2 nM, respectively. Also, the “Ratio hCT/hAmylin binding” value in test [3] was determined as 80.

B2: N^ε1-[2-[2-[2-[[(4S)-4-carboxy-4-(19-carboxynonadecanoylamino)butanoyl]amino]ethoxy]ethoxy]acetyl]-[His14,Arg17,Pro21,Pro27,His34]-h-amylin (peptide)
peptide: K([AEEA-γGlu-C20 diacid])CNTATCATQRLAHFLRHSSPNFGAIPSSTNVGHNTY-NH2
modifications: disulfide 2-7; N-terminus assumed
SMILES: CC[C@H](C)[C@H](NC(=O)[C@H](C)NC(=O)CNC(=O)[C@H](Cc1ccccc1)NC(=O)[C@H](CC(N)=O)NC(=O)[C@@H]1CCCN1C(=O)[C@H](CO)NC(=O)[C@H](CO)NC(=O)[C@H](Cc1c[nH]cn1)NC(=O)[C@H](CCCNC(=N)N)NC(=O)[C@H](CC(C)C)NC(=O)[C@H](Cc1ccccc1)NC(=O)[C@H](Cc1c[nH]cn1)NC(=O)[C@H](C)NC(=O)[C@H](CC(C)C)NC(=O)[C@H](CCCNC(=N)N)NC(=O)[C@H](CCC(N)=O)NC(=O)[C@@H](NC(=O)[C@H](C)NC(=O)[C@@H]1CSSC[C@H](NC(=O)[C@@H](N)CCCCNC(=O)COCCOCCNC(=O)CC[C@H](NC(=O)CCCCCCCCCCCCCCCCCCC(=O)O)C(=O)O)C(=O)N[C@@H](CC(N)=O)C(=O)N[C@@H]([C@@H](C)O)C(=O)N[C@@H](C)C(=O)N[C@@H]([C@@H](C)O)C(=O)N1)[C@@H](C)O)C(=O)N1CCC[C@H]1C(=O)N[C@@H](CO)C(=O)N[C@@H](CO)C(=O)N[C@H](C(=O)N[C@@H](CC(N)=O)C(=O)N[C@H](C(=O)NCC(=O)N[C@@H](Cc1c[nH]cn1)C(=O)N[C@@H](CC(N)=O)C(=O)N[C@H](C(=O)N[C@@H](Cc1ccc(O)cc1)C(N)=O)[C@@H](C)O)C(C)C)[C@@H](C)O
notes: also called compound 80
With B2, the IC50 (usually the midpoint of a concentration-inhibition curve) in test [1] stood at 0.29 nM; in test [2] it was 19.8 nM. Further, the “Ratio hCT/hAmylin binding” value in test [3] stood at 68.1.

B3: N^ε1-[2-[2-[2-[[(4S)-4-carboxy-4-(19-carboxynonadecanoylamino)butanoyl]amino]ethoxy]ethoxy]acetyl]-[His14,Arg17,Pro21,Pro27,Arg34]-h-amylin (peptide)
peptide: K([AEEA-γGlu-C20 diacid])CNTATCATQRLAHFLRHSSPNFGAIPSSTNVGRNTY-NH2
modifications: disulfide 2-7; N-terminus assumed
SMILES: CC[C@H](C)[C@H](NC(=O)[C@H](C)NC(=O)CNC(=O)[C@H](Cc1ccccc1)NC(=O)[C@H](CC(N)=O)NC(=O)[C@@H]1CCCN1C(=O)[C@H](CO)NC(=O)[C@H](CO)NC(=O)[C@H](Cc1c[nH]cn1)NC(=O)[C@H](CCCNC(=N)N)NC(=O)[C@H](CC(C)C)NC(=O)[C@H](Cc1ccccc1)NC(=O)[C@H](Cc1c[nH]cn1)NC(=O)[C@H](C)NC(=O)[C@H](CC(C)C)NC(=O)[C@H](CCCNC(=N)N)NC(=O)[C@H](CCC(N)=O)NC(=O)[C@@H](NC(=O)[C@H](C)NC(=O)[C@@H]1CSSC[C@H](NC(=O)[C@@H](N)CCCCNC(=O)COCCOCCNC(=O)CC[C@H](NC(=O)CCCCCCCCCCCCCCCCCCC(=O)O)C(=O)O)C(=O)N[C@@H](CC(N)=O)C(=O)N[C@@H]([C@@H](C)O)C(=O)N[C@@H](C)C(=O)N[C@@H]([C@@H](C)O)C(=O)N1)[C@@H](C)O)C(=O)N1CCC[C@H]1C(=O)N[C@@H](CO)C(=O)N[C@@H](CO)C(=O)N[C@H](C(=O)N[C@@H](CC(N)=O)C(=O)N[C@H](C(=O)NCC(=O)N[C@@H](CCCNC(=N)N)C(=O)N[C@@H](CC(N)=O)C(=O)N[C@H](C(=O)N[C@@H](Cc1ccc(O)cc1)C(N)=O)[C@@H](C)O)C(C)C)[C@@H](C)O
notes: also called compound 84
B3: the IC50 in test [1] is 0.743 nM; in test [2], 88.9 nM. Moreover, in test [3], the “Ratio hCT/hAmylin binding” value turned out to be 120.

B4: N^ε1-[(4S)-4-carboxy-4-(13-carboxytridecanoylamino)butanoyl]-[Arg17,Pro21,Pro27,His34]-h-amylin (peptide)
peptide: K([γGlu-C14 diacid])CNTATCATQRLANFLRHSSPNFGAIPSSTNVGHNTY-NH2
modifications: disulfide 2-7; N-terminus assumed
SMILES: CC[C@H](C)[C@H](NC(=O)[C@H](C)NC(=O)CNC(=O)[C@H](Cc1ccccc1)NC(=O)[C@H](CC(N)=O)NC(=O)[C@@H]1CCCN1C(=O)[C@H](CO)NC(=O)[C@H](CO)NC(=O)[C@H](Cc1c[nH]cn1)NC(=O)[C@H](CCCNC(=N)N)NC(=O)[C@H](CC(C)C)NC(=O)[C@H](Cc1ccccc1)NC(=O)[C@H](CC(N)=O)NC(=O)[C@H](C)NC(=O)[C@H](CC(C)C)NC(=O)[C@H](CCCNC(=N)N)NC(=O)[C@H](CCC(N)=O)NC(=O)[C@@H](NC(=O)[C@H](C)NC(=O)[C@@H]1CSSC[C@H](NC(=O)[C@@H](N)CCCCNC(=O)CC[C@H](NC(=O)CCCCCCCCCCCCC(=O)O)C(=O)O)C(=O)N[C@@H](CC(N)=O)C(=O)N[C@@H]([C@@H](C)O)C(=O)N[C@@H](C)C(=O)N[C@@H]([C@@H](C)O)C(=O)N1)[C@@H](C)O)C(=O)N1CCC[C@H]1C(=O)N[C@@H](CO)C(=O)N[C@@H](CO)C(=O)N[C@H](C(=O)N[C@@H](CC(N)=O)C(=O)N[C@H](C(=O)NCC(=O)N[C@@H](Cc1c[nH]cn1)C(=O)N[C@@H](CC(N)=O)C(=O)N[C@H](C(=O)N[C@@H](Cc1ccc(O)cc1)C(N)=O)[C@@H](C)O)C(C)C)[C@@H](C)O
In the case of B4, the IC50 turned out to be 1.04 nM in test [1] and 24.3 nM in test [2]. Also, the “Ratio hCT/hAmylin binding” value in test [3] was found to be 23.5.

B5: N^ε1-[2-[2-[2-[[(4S)-4-carboxy-4-(19-carboxynonadecanoylamino)butanoyl]amino]ethoxy]ethoxy]acetyl]-[Thr14,Arg17,Pro21,Pro27,Pro31]-h-amylin (peptide)
peptide: K([AEEA-γGlu-C20 diacid])CNTATCATQRLATFLRHSSPNFGAIPSSTPVGSNTY-NH2
modifications: disulfide 2-7; N-terminus assumed
SMILES: CC[C@H](C)[C@H](NC(=O)[C@H](C)NC(=O)CNC(=O)[C@H](Cc1ccccc1)NC(=O)[C@H](CC(N)=O)NC(=O)[C@@H]1CCCN1C(=O)[C@H](CO)NC(=O)[C@H](CO)NC(=O)[C@H](Cc1c[nH]cn1)NC(=O)[C@H](CCCNC(=N)N)NC(=O)[C@H](CC(C)C)NC(=O)[C@H](Cc1ccccc1)NC(=O)[C@@H](NC(=O)[C@H](C)NC(=O)[C@H](CC(C)C)NC(=O)[C@H](CCCNC(=N)N)NC(=O)[C@H](CCC(N)=O)NC(=O)[C@@H](NC(=O)[C@H](C)NC(=O)[C@@H]1CSSC[C@H](NC(=O)[C@@H](N)CCCCNC(=O)COCCOCCNC(=O)CC[C@H](NC(=O)CCCCCCCCCCCCCCCCCCC(=O)O)C(=O)O)C(=O)N[C@@H](CC(N)=O)C(=O)N[C@@H]([C@@H](C)O)C(=O)N[C@@H](C)C(=O)N[C@@H]([C@@H](C)O)C(=O)N1)[C@@H](C)O)[C@@H](C)O)C(=O)N1CCC[C@H]1C(=O)N[C@@H](CO)C(=O)N[C@@H](CO)C(=O)N[C@H](C(=O)N1CCC[C@H]1C(=O)N[C@H](C(=O)NCC(=O)N[C@@H](CO)C(=O)N[C@@H](CC(N)=O)C(=O)N[C@H](C(=O)N[C@@H](Cc1ccc(O)cc1)C(N)=O)[C@@H](C)O)C(C)C)[C@@H](C)O
notes: also called compound 75
In the case of B5, the IC50 in test [1] came out at 0.666 nM; in test [2] it was 60.9 nM. Further, in test [3], the “Ratio hCT/hAmylin binding” value amounted to 91.4.
